Data: US6967100B2, “Pancreatic islet cell growth factors” (The Walter and Eliza Hall Institute of Medical Research, priority 2000, dated 2005)

What was measured:
Format in all cases: cell-based
[1] = tested on: C2C12 myoblasts; assay: C2C12 cell BMP bioassay (transformation of myoblasts into alkaline phosphatase-containing osteoblasts); details: for BMP activity of conditioned medium (alkaline phosphatase activity of C2C12 cells): conditioned medium of stably transfected CHO cells, compared to medium of untransfected CHO cells
Method: BMP activity was measured in the C2C12 cell bioassay, in which BMPs transform C2C12 myoblasts into alkaline phosphatase-containing osteoblasts (Katagiri et al., 1994). Briefly, CHO cells were plated at a density of around 5×10^6 per 75 cm^2 flask in serum-free HYBRIDOMA medium (Gibco BRL Life Technology) (SFHM) containing 10% v/v FCS. Once the cells had reached confluency, the medium was removed, the cells washed twice with SFHM and 10 ml of SFHM then added to each flask. The cells were cultured for four days and the conditioned medium collected, filtered through a 2 micron filter and stored at 4° C.
2×10^3 C2C12 cells were plated into each well of a 96-well tissue culture plate in DME/10% v/v FCS. Twenty-four hours later, the medium was removed and replaced with 100 μl SFHM/1% v/v FCS. 50 μl of each conditioned medium was added in duplicate to the top row of the 96-well plate and the volume of these wells then made up to 200 μl. Using a multi-channel pipette, 100 μl from each well was then serially transferred to subsequent rows thus diluting the conditioned medium 2-fold with each transfer. After incubation for five days, the media were discarded and the cells washed with normal saline. Cells were lysed for 10 mins at room temperature (RT) in 100 μl 0.5% v/v TritonX-100 and 100 mM diethanolamine (pH 9.5) in normal saline. To each well was then added an aqueous solution containing 10 mM diethanolamine, 1 mg/ml p-nitrophenyl phosphate (PNPP) and 0.5 mM MgCl2. The yellow reaction product catalyzed by alkaline phosphatase was allowed to develop for 10-60 mins before reading absorption at 415 nm.

[2] = tested on: 13.5 dpc fetal mouse pancreas cells; assay: Colony formation of 13.5 dpc fetal mouse pancreas cells cultured with BMPs and laminin-1; details: for proliferation and colony formation of fetal pancreas cells: in the presence (but not absence) of laminin-1, four days culture; for proliferation or colony formation, candidate growth factors individually: 13.5 dpc fetal pancreas cells
Method: Dissociated fetal pancreas cells were prepared from 13.5 dpc CBA mice. Pregnant mice at 13.5 dpc were killed by cervical dislocation and fetuses collected into ice cold sterile mouse tonicity phosphate-buffered saline (MTPBS). Fetal pancreata were harvested under an Olympus dissection microscope into RPMI 1640 medium and dissociated in a shaking water bath at 37° C. for 11 mins in Ca^2+/Mg^2+-free PBS containing 0.5% v/v trypsin/EDTA as described for testis by Bucci et al. (1986). After dissociation, trypsin was inactivated by addition of 8% w/v bovine serum albumin (BSA, fraction V) (Sigma, St. Louis, USA). The tissue was aspirated several times in a pipette, passed through a 27 gauge needle to make a single cell suspension and then rinsed in 10 μg/ml DNAse I (Promega, Madison, USA) in RPMI 1640 for 10 mins to reduce cellular aggregates. Cell suspensions were filtered through a 70-100 μm steel mesh, centrifuged at 400×g for 5 mins and the supernatant discarded. The cell pellet was resuspended in HYBRIDOMA medium and stored on ice. Cells were counted under a haemocytometer and viability was determined by exclusion of 0.2% v/v trypan blue dye. Pancreatic cells were plated in 8 chamber slides (Nunc) at 1.5×10^4 cells/well in 0.3 ml HYBRIDOMA medium 500 UI/ml penicillin and 500 μg/ml streptomycin. The cells were cultured in 10% v/v CO2, 90% v/v air at 37° C. with 100% humidity for four days in the presence of factors such as laminin-1 and BMPs.
After four days in culture, cells were washed twice with warm MT-PBS and fixed with a 4% v/v paraformaldehye for 10 mins. In some cases, 100 μM BrdU was added to label proliferating cells 12 hours before fixation and detection with monoclonal antibody to BrdU and FITC-labelled rabbit anti-mouse immunoglobulin. For immunoperoxidase staining, endogenous peroxidase was blocked by 3% v/v H2O2 in methanol for 8 mins and, prior to addition of primary antibody, non-specific protein binding was blocked by incubation for at least 30 mins in MTPBS containing 2% w/v BSA or 2% v/v normal rabbit serum. Controls were performed by replacing primary antibody with pre-immune serum from the appropriate species. Tissue sections or cells were incubated with primary antibodies for 90 min RT, followed by three thorough washes with MTPBS. For immunoperoxidase staining, horseradish peroxidase-conjugated rabbit anti-guinea pig, swine anti-rabbit or rabbit anti-mouse immunoglobulins (Dako) diluted 1:80 were added for 30 mins at RT followed by thorough washes; colour was developed with 3,3′-diaminobenzidine/H2O2 for 4-8 mins and slides counterstained with haematoxylin.
A pancreatic cell colony was defined as a spherical collection of 20 cells. Colonies were counted under a×10 power objective with an eyepiece graticule.

[3] = tested on: E15.5 CBA mouse fetal pancreas cells; assay: Cystic colony formation of E15.5 fetal mouse pancreas cells in laminin-1 overlay culture
Method: Pancreata were dissected from embryonic day (E)15.5 CBA mouse fetuses and dissociated into single cells as described (Jiang et al., 1999). Briefly, dissected pancreas was digested with trypsin/EDTA for 15 minutes at 37° C. in a shaking water bath. Cells were counted in a haemocytometer and viability determined by trypan blue dye exclusion. Each fetal pancreas yielded 50,000 viable cells (48,509±11,299, n=14). Dissociated cells were plated in 8 well chamber slides (Nunc, Naperville, USA) at 7.5×10^4 cells/well in 0.3 ml AIM V medium supplemented with N-2 (1:100, Gibco BRL Life Technologies, Gaithersburg, USA), 500 UI/ml penicillin and 500 μg/ml streptomycin. Laminin-1 (160 μg/ml), purified from murine Engelbreth-Holm-Swarm tumor basement membrane (Becton Dickinson Labware, Bedford, USA), was overlayed on cells in the presence of various growth factors. Cultures were incubated in 10% CO2 90% air at 37° C., for up to 6 days. Recombinant human BMP 6 and BMP 5, recombinant human TGF-β1 and recombinant activin A were purchased from R&D Systems (Minneapolis, USA). These factors, dissolved at a concentration of 10 ng/μl in mouse tonicity phosphate buffered saline (PBS) containing 0.1% w/v bovine serum albumin (BSA), were added at the start of culture. Phase contrast images of colonies were photographed with Olympus IX70 digitized camera.
Colony formation was assessed at day 6 of culture. A colony was defined as a cellular sphere ≧30 μm in diameter, which contained more than 20 cells. The number of colonies per well was counted directly under a inverted microscope at ×10. Colony counts were performed using a blind design.

[4] = tested on: E15.5 CBA mouse fetal pancreas cells; assay: as above; details: BMP alone

| Molecule | BMP activity of conditioned medium (alkaline phosphatase activity of C2C12 cells) [1] | proliferation and colony formation of fetal pancreas cells [2] | proliferation or colony formation, candidate growth factors individually [2] | further results |
| --- | --- | --- | --- | --- |
| BMP 4/4: BMP 4 homodimer, epitope-tagged recombinant mouse BMP in CHO cell conditioned medium (protein, UniProt P21275 293-408, looked up, epitope tag) Bone morphogenetic protein 4: SPKHHPQRSRKKNKNCRRHSLYVDFSDVGWNDWIVAPPGYQAFYCHGDCPFPLADHLNSTNHAIVQTLVNSVNSSIPKACCVPTELSAISMLYLDEYDKVVLKNYQEMVVEGCGCR | significant activity | did not promote colony formation | – | – |
| BMP 4/7: BMP 4 and BMP 7 heterodimer, recombinant mouse, CHO cell conditioned medium (protein, UniProt P21275 293-408; P23359 292-430, looked up, heterodimer, BMP 4 and BMP 7 heterodimer, recombinant mouse, CHO cell conditioned medium) Bone morphogenetic protein 4: SPKHHPQRSRKKNKNCRRHSLYVDFSDVGWNDWIVAPPGYQAFYCHGDCPFPLADHLNSTNHAIVQTLVNSVNSSIPKACCVPTELSAISMLYLDEYDKVVLKNYQEMVVEGCGCR Bone morphogenetic protein 7: STGGKQRSQNRSKTPKNQEALRMASVAENSSSDQRQACKKHELYVSFRDLGWQDWIIAPEGYAAYYCEGECAFPLNSYMNATNHAIVQTLVHFINPDTVPKPCCAPTQLNAISVLYFDDSSNVILKKYRNMVVRACGCH | significant activity | stimulated fetal pancreas cells to proliferate and form colonies | – | relative BMP bioactivity ([1]; FIG. 3, heterodimer versus homodimer): more active than 4/4 homodomers |
| BMP 4/6: BMP 4 and BMP 6 heterodimer, recombinant mouse, CHO cell conditioned medium (protein, UniProt P21275 293-408; P20722 372-510, looked up, heterodimer, BMP 4 and BMP 6 heterodimer, recombinant mouse, CHO cell conditioned medium) Bone morphogenetic protein 4: SPKHHPQRSRKKNKNCRRHSLYVDFSDVGWNDWIVAPPGYQAFYCHGDCPFPLADHLNSTNHAIVQTLVNSVNSSIPKACCVPTELSAISMLYLDEYDKVVLKNYQEMVVEGCGCR Bone morphogenetic protein 6: SASSRRRQQSRNRSTQSQDVSRGSGSSDYNGSELKTACKKHELYVSFQDLGWQDWIIAPKGYAANYCDGECSFPLNAHMNATNHAIVQTLVHLMNPEYVPKPCCAPTKLNAISVLYFDDNSNVILKKYRNMVVRACGCH | significant activity | did not promote colony formation | – | – |
| KGF: candidate growth factor (protein, UniProt P21781 32-194, looked up) Fibroblast growth factor 7: CNDMTPEQMATNVNCSSPERHTRSYDYMEGGDIRVRRLFCRTQWYLRIDKRGKVKGTQEMKNNYNIMEIRTVAVGIVAIKGVESEFYLAMNKEGKLYAKKECNEDCNFKELILENHYNTYASAKWTHNGGEMFVALNQKGIPVRGKKTKKEQKTAHFLPMAIT | – | – | unable to promote proliferation or colony formation | – |
| BMP 5: recombinant human BMP 5 purchased from R&D Systems (protein, UniProt P22003 317-454, looked up) Bone morphogenetic protein 5: AANKRKNQNRNKSSSHQDSSRMSSVGDYNTSEQKQACKKHELYVSFRDLGWQDWIIAPEGYAAFYCDGECSFPLNAHMNATNHAIVQTLVHLMFPDHVPKPCCAPTKLNAISVLYFDDSSNVILKKYRNMVVRSCGCH | – | – | – | concentration of maximal stimulation of colony formation ([3]; laminin-1 160 μg/ml, day 6, fewer colonies at higher concentrations): 100 ng/mL; formation of cystic colonies in the presence of laminin-1 ([3]; laminin-1 160 μg/ml, up to 6 days): synergized with laminin-1 to promote formation of cystic colonies; colony formation in the absence of laminin-1 [4]: no effect |
| BMP 7/7: BMP 7 homodimer, epitope-tagged recombinant mouse BMP in CHO cell conditioned medium (protein, UniProt P23359 292-430, looked up, epitope tag) Bone morphogenetic protein 7: STGGKQRSQNRSKTPKNQEALRMASVAENSSSDQRQACKKHELYVSFRDLGWQDWIIAPEGYAAYYCEGECAFPLNSYMNATNHAIVQTLVHFINPDTVPKPCCAPTQLNAISVLYFDDSSNVILKKYRNMVVRACGCH | significant activity | stimulated fetal pancreas cells to proliferate and form colonies | – | – |
| betacellulin: candidate growth factor (protein, UniProt P35070 32-111, looked up) Betacellulin: DGNSTRSPETNGLLCGDPEENCAATTTQSKRKGHFSRCPKQYKHYCIKGRCRFVVAEQTPSCVCDEGYIGARCERVDLFY | – | – | unable to promote proliferation or colony formation | – |
| BMP 6/6: recombinant mouse BMP 6, myc epitope tagged, CHO cell conditioned medium; called BMP 6 in b118 (protein, UniProt P20722 372-510, looked up, myc epitope tag, called BMP 6) Bone morphogenetic protein 6: SASSRRRQQSRNRSTQSQDVSRGSGSSDYNGSELKTACKKHELYVSFQDLGWQDWIIAPKGYAANYCDGECSFPLNAHMNATNHAIVQTLVHLMNPEYVPKPCCAPTKLNAISVLYFDDNSNVILKKYRNMVVRACGCH | – | stimulated fetal pancreas cells to proliferate and form colonies | – | – |
| Activin A: recombinant activin A from R&D Systems (protein, UniProt P08476 311-426, looked up) Inhibin beta A chain: GLECDGKVNICCKKQFFVSFKDIGWNDWIIAPSGYHANYCEGECPSHIAGTSGSSLSFHSTVINHYRMRGHSPFANLKSCCVPTKLRPMSMLYYDDGQNIIKKDIQNMIVEECGCS | – | – | unable to promote proliferation or colony formation | BMP 6-induced colony formation ([3]; 100 ng/ml against BMP 6 10 ng/ml, laminin-1 160 μg/ml, p<0.01 (FIG. 10B)): antagonized; colony formation relative to laminin-1 alone ([3]; 100 ng/ml, laminin-1 160 μg/ml (FIG. 10A)): suppressed colony formation to levels below that observed with laminin-1 alone |
